The chains are these.
B1: library; numbered along this chain (parent)
chain: MNIQIGELAKRTACPVVTIRFYEQEGLLPPPGRSRGNFRLYGEEHVERLQFIRHCRSLDMPLSDVRTLLSYRKRPDQDCGEVNMLLDEHIRQVESRIGALLELKHHLVELREACSGARPAQSCGILQGLSDCVCDTRGTTAHPSD

± gives the standard deviation of the averaged measurements.

The variants in series [1] derive from B1. The experiment in a line: sfGFP reporter fluorescence (15 h) (µM FITC); higher = higher leak. As to conditions: library round: Round 0; ligand: none. The method, boiled down: (§1)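 Linear PbrR templates were made by PCR, normalized to 5 nM with an Echo, and expressed in BL21 Star (DE3) PANOx-SP extract with the pPbrR-sfGFP reporter plasmid and 30 μg/mL GamS. Echo-assembled 1 μL reactions held 1 µM lead chloride, 30 µM zinc acetate or no metal and were incubated 15 hr at 30 °C. Endpoint sfGFP fluorescence was read on a Synergy Neo2 and expressed as µM FITC using standard curves. Up to three biological replicates were run.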

Series [2] covers variants of B1. The experiment in a line: sfGFP reporter fluorescence (15 h) (µM FITC); higher = stronger transcriptional activation. As to conditions: library round: Round 0. In short, it runs like this: as §1

For MNIQIGELAKRTACPVVTIRFYEQEGLLPPPGRSRGNFILYGEEHVERLQFIRHCRSLDMPLSDVRTLLSYRKRPDQDCGEVNMLLDEHIRQVESRIGALLELKHHLVELREACSGARPAQSCGILQGLSDCVCDTRGTTAHPSD, the figures for the sfGFP reporter fluorescence in series [1], in series [2] (ligand: 1 µM Pb) and in series [2] (ligand: 30 µM Zn) were 0.0572 ± 0.0015, 0.0566 ± 0.0018 and 0.0726 ± 0.0042, respectively.

In the case of MNIQIGELAKRTACPVVTIRFYEQEGLLPPPGRSRGNFLLYGEEHVERLQFIRHCRSLDMPLSDVRTLLSYRKRPDQDCGEVNMLLDEHIRQVESRIGALLELKHHLVELREACSGARPAQSCGILQGLSDCVCDTRGTTAHPSD, the results for the sfGFP reporter fluorescence in series [1], in series [2] (ligand: 1 µM Pb) and in series [2] (ligand: 30 µM Zn) were 0.0581 ± 0.0013, 0.05901 ± 0.00052 and 0.055 ± 0.0036, respectively.

Take MNIQIGELAKRTACPVVTIRLYEQEGLLPPPGRSRGNFRLYGEEHVERLQFIRHCRSLDMPLSDVRTLLSYRKRPDQDCGEVNMLLDEHIRQVESRIGALLELKHHLVELREACSGARPAQSCGILQGLSDCVCDTRGTTAHPSD: the sfGFP reporter fluorescence in series [1] was 0.0612 ± 0.001; in series [2] (ligand: 1 µM Pb), 0.0581 ± 0.0013; in series [2] (ligand: 30 µM Zn) it was 0.0696 ± 0.001.

Take MNIQIGELAKRTACPVVTIRFYEQEGLLPPPGRSRGNFRLYGEEHVERLQFIRHCRSLDMPLSDVRTLLSYRKRPDQDCGEVNMLLDEHIRQVESRIGALLELVHHLVELREACSGARPAQSCGILQGLSDCVCDTRGTTAHPSD: the sfGFP reporter fluorescence in series [1] turned out to be 0.0652 ± 0.0088; in series [2] (ligand: 1 µM Pb) it was 0.173 ± 0.039; in series [2] (ligand: 30 µM Zn), 1.35 ± 0.19.

Take MNIQIGELAKRTACPVVTIRFYEQEGLLPPPGRSRGNFRLYGEEHVERLQFIRHCRSLDMPLSDVRTLLSYRKRPDQDCGEVNMLLDEHIRQVESRIGALLELKHHLVELAEACSGARPAQSCGILQGLSDCVCDTRGTTAHPSD: the sfGFP reporter fluorescence worked out at 0.0634 ± 0.0026 in series [1], 0.09932 ± 0.00052 in series [2] (ligand: 1 µM Pb) and 1.17 ± 0.021 in series [2] (ligand: 30 µM Zn).

MNIQIGELAKRTACPVVTARFYEQEGLLPPPGRSRGNFRLYGEEHVERLQFIRHCRSLDMPLSDVRTLLSYRKRPDQDCGEVNMLLDEHIRQVESRIGALLELKHHLVELREACSGARPAQSCGILQGLSDCVCDTRGTTAHPSD: the values for the sfGFP reporter fluorescence in series [1], in series [2] (ligand: 1 µM Pb) and in series [2] (ligand: 30 µM Zn) were 0.0577 ± 0.0013, 0.0592 ± 0.00078 and 0.08063 ± 0.00052, respectively.

In the case of MNIQIGELAKRTACPVVTIRFYEQEGLLPPPGRSRGNFRLYGEEHVERLQFIRHCRSLDLPLSKVRTLLSYRKRPDQDCGEVNMLLDEHIRQVESRIGALLELVHHLVELREACSGARPAQSCGILQMLSDCVCDTRGTTAHPSD, the values for the sfGFP reporter fluorescence in series [1], in series [2] (ligand: 1 µM Pb) and in series [2] (ligand: 30 µM Zn) were 3.37 ± 0.19, 4.36 ± 0.31 and 3.8 ± 0.24, respectively.

With MNIQIGELAKRTACPVVTIRFYEQEGLLPPPGRSRGNFRLYGEEHVERLQFIRHCRSLDMPLSDVRTLLSYRKRPDQDCGEVNMLLDEHIRQVESRHGALLELKHHLVELREACSGARPAQSCGILQGLSDCVCDTRGTTAHPSD, the values for the sfGFP reporter fluorescence in series [1], in series [2] (ligand: 1 µM Pb) and in series [2] (ligand: 30 µM Zn) were 0.0564 ± 0.0062, 0.0596 ± 0.0034 and 0.263 ± 0.0018, respectively.

MNIQIGELAKRTACPVVTIRFYEQEGLLPPPGRSRANFRLYGEEHVERLQFIRHCRSLDMPLSDVRTLLSYRKRPDQDCGEVNMLLDEHIRQVESRIGALLELKHHLVELREACSGARPAQSCGILQGLSDCVCDTRGTTAHPSD: the sfGFP reporter fluorescence in series [1] came to 0.0665 ± 0.00078; in series [2] (ligand: 1 µM Pb), 0.108 ± 0.0067; in series [2] (ligand: 30 µM Zn), 1.91 ± 0.2.

On to MNIQIGELAKRTACPVVTIRFYEQEGLLPPPGRSRGNFRLYGEEHVERLQFIRHCRSLDMPLSDVRTLLSYRKRPDQDCGEVNMLLDEHIRQVESRIGALLELKHHLVELREACSGARPAQSCGILQGLSDCVCDTRGTTAHDSD, for which the sfGFP reporter fluorescence is 0.05754 ± 0.00052 in series [1], 0.0733 ± 0.0021 in series [2] (ligand: 1 µM Pb) and 0.782 ± 0.024 in series [2] (ligand: 30 µM Zn).

With MNIQIGELAKRTACMVVTIRFYEQEGLLPPPGRSRGNFRLYGEEHVERLQFIRHCRSLDMPLSDVRTLLSYRKRPDQDCGEVNMLLDEHIRQVESRIGALLELKHHLVELREACSGARPAQSCGILQGLSDCVCDTRGTTAHPSD, the sfGFP reporter fluorescence in series [1] stood at 0.0625 ± 0.0018; in series [2] (ligand: 1 µM Pb), 0.0795 ± 0.001; in series [2] (ligand: 30 µM Zn), 0.637 ± 0.02.

Regarding MNIQIGELAKRTACPVVTIRFYEQEGLLPPPGRSRGNFRLYGEEHVERLQFIRHCRSLDMPLSDVRTLLSYRKRPDQDCGEVNMLLDEEIRQVESRIGALLELKHHLVELREACSGARPAQSCGILQGLSDCVCDTRGTTAHPSD, the sfGFP reporter fluorescence in series [1] came to 0.0647 ± 0.0023; in series [2] (ligand: 1 µM Pb), 0.0795 ± 0.0031; in series [2] (ligand: 30 µM Zn), 0.139 ± 0.0023.

Consider MNIQIGELAKRTACPVVTIRFYEQEGLLPPPGRSRGNFRLYGEEHVERLQFIRHCRSLDMPLSDVRTLLSYRKRPDQDCGEVNMLLDEHIRQVESRIGALLELKHHLVQLREACSGARPAQSCGILQGLSDCVCDTRGTTAHPSD, for which the sfGFP reporter fluorescence in series [1] came to 0.0601; in series [2] (ligand: 1 µM Pb), 0.0823 ± 0.0034; in series [2] (ligand: 30 µM Zn) it was 1.08 ± 0.25.

Regarding MNIQIGELAKRTACPVVTIRFYEQEGLLPPPGRSRGNFRLYGEEHVERLQFIRHCRSLDMPLSDVRTLLSYRKRPDQDCGEVNMLLDEHIRQVESRIGALLELKHHLVELREACSGARPAQSCGILQHLSDCVCDTRGTTAHPSD, the sfGFP reporter fluorescence was found to be 0.0608 ± 0.0021 in series [1], 0.0848 ± 0.0034 in series [2] (ligand: 1 µM Pb) and 0.25 ± 0.012 in series [2] (ligand: 30 µM Zn).

Values taken from the supplement of paper PMC12783771.
